# Test results taken from US20180195091A1, “THERMOPHILIC MICROORGANISMS FOR CONVERSION OF LIGNOCELLULOSIC BIOMASS TO ETHANOL” (THE TRUSTEES OF DARTMOUTH COLLEGE, priority 2015, published 2018).
# Values joined by “and” are separate entries in the source; they are usually repeats but may differ in a detail not shown here. Equal values may be shown once.
# Columns and labels:
# [1] = tested on: purified AdhE proteins in C. thermocellum, with the exception of LL346; test: Product inhibition of purified AdhE; format: biochemical, Clostridium thermocellum; conditions: concentration not stated
# Method: The E. coli crude extracts described above were incubated at 50° C. anaerobically for 20 min to denature E. coli proteins, and the denatured proteins were separated by centrifugation. In strains LL346 and LL1040, the AdhE proteins were heat labile, and lost activity after 50° C. incubation, so these cell extracts were applied directly to the purification column without heating. E. coli cells expressing the control plasmid pNT-CALML3 were subject to the same treatment as above, and its ADH and ALDH activities before and after heat treatment were measured (Table S3). […] For C. thermocellum and T. saccharolyticum AdhE, activity was measured at various stages during purification. […]
# All the ALDH activity measurements mentioned in this study refer to the reaction in the acetaldehyde-producing direction. […] Decrease in absorbance at 340 nm caused by NAD(P)H oxidation was monitored by an Agilent 8453 UV-Vis spectrophotometer with Peltier temperature control. Protein concentration was determined using the Bradford method with bovine serum albumin (Thermo Scientific) as the standard. Specific activities are expressed as units per mg of protein. […] The software Visual Enzymics (SoftZymics) was used for non-linear regression to calculate the apparent Km, and kcat values in Table 10. kcat was calculated on the basis of a molecular weight of 97-kDa (26). […]
# [2] = target: Clostridium thermocellum LL346 (ethanol-tolerant) AdhE, mutations P704L and H734R (Acetivibrio thermocellus, UniProt A3DCI2, H734R/P704L)
# [3] = substrate: NC(=O)C1=CN([C@@H]2O[C@H](COP(=O)(O)OP(=O)(O)OC[C@H]3O[C@@H](n4cnc5c(N)ncnc54)[C@H](O)[C@@H]3O)[C@@H](O)[C@H]2O)C=CC1; test: purified protein, by the assay type; conditions: pH 7.0; 55.0 °C
# [4] = substrate: CC=O; test: purified protein, by the assay type; conditions: pH 7.0; 55.0 °C
# [5] = substrate: NC(=O)C1=CN([C@@H]2O[C@H](COP(=O)(O)OP(=O)(O)OC[C@H]3O[C@@H](n4cnc5c(N)ncnc54)[C@H](OP(=O)(O)O)[C@@H]3O)[C@@H](O)[C@H]2O)C=CC1; test: purified protein, by the assay type; conditions: pH 7.0; 55.0 °C
# [6] = substrate: CC(=O)SCCNC(=O)CCNC(=O)[C@H](O)C(C)(C)COP(=O)(O)OP(=O)(O)OC[C@H]1O[C@@H](n2cnc3c(N)ncnc32)[C@H](O)[C@@H]1OP(=O)(O)O; test: purified protein, by the assay type; conditions: pH 7.0; 55.0 °C
# [7] = substrate: NC(=O)C1=CN([C@@H]2O[C@H](COP(=O)(O)OP(=O)(O)OC[C@H]3O[C@@H](n4cnc5c(N)ncnc54)[C@H](O)[C@@H]3O)[C@@H](O)[C@H]2O)C=CC1; test: purified protein, by the assay type; conditions: pH 7.0; 55.0 °C; remark: listed apart in the source
# [8] = substrate: NC(=O)C1=CN([C@@H]2O[C@H](COP(=O)(O)OP(=O)(O)OC[C@H]3O[C@@H](n4cnc5c(N)ncnc54)[C@H](O)[C@@H]3O)[C@@H](O)[C@H]2O)C=CC1; test: ADH reaction (acetaldehyde reduction) of purified AdhE, apparent kinetics; format: biochemical, Clostridium thermocellum; conditions: pH 7.0; 55.0 °C
# Method: (§1) 500 μL of E. coli culture containing a plasmid with the adhE gene of interest was inoculated into 100 mL sterile LB broth Miller (Acros) with the appropriate antibiotic, and were grown aerobically to OD600 0.5 with shaking at 200 rpm at 37° C. (Eppendorf Innova 42 shaker). The E. coli strain harboring the pNT-CALML3 control plasmid (Invitrogen) was used as a negative control to measure native E. coli ADH or ALDH activity. The cultures were then transferred to sterile serum bottles, and 40 mM IPTG (Isopropyl β-D-1-thiogalactopyranoside) was used to induce protein expression. The serum bottles were then purged with nitrogen to generate an anaerobic protein expression environment, and the cells were cultured for 2 h at 37° C. before harvesting.
# (§2) The E. coli crude extracts described above were incubated at 50° C. anaerobically for 20 min to denature E. coli proteins, and the denatured proteins were separated by centrifugation. In strains LL346 and LL1040, the AdhE proteins were heat labile, and lost activity after 50° C. incubation, so these cell extracts were applied directly to the purification column without heating. E. coli cells expressing the control plasmid pNT-CALML3 were subject to the same treatment as above, and its ADH and ALDH activities before and after heat treatment were measured (Table S3). The cell extracts containing His-tagged AdhE were then subjected to anaerobic affinity column purification (Ni-NTA spin columns, Qiagen). The purification was carried out according to the Qiagen protocol “Ni-NTA Agarose Purification of 6×His-tagged Proteins from E. coli under Native Conditions” with some modifications as described below. The column was first equilibrated with Equilibrium Buffer (50 mM NaH2PO4, 300 mM NaCl, 5 mM imidazole, 5 μM FeSO4, pH 7), then cell extracts were applied to the column and the column was washed twice with Wash Buffer (50 mM NaH2PO4, 300 mM NaCl, 50 mM imidazole, 20% ethanol, 5 μM FeSO4, pH 7). The His-tagged AdhE was eluted by addition of 200 μL Elution Buffer (50 mM NaH2PO4, 300 mM NaCl, 500 mM imidazole, 5 μM FeSO4, pH 7), this is “Eluent 1” in Table S3 and S4. Repeating this elution step sequentially generated more purified “Eluent 2” and “Eluent 3”. For C. thermocellum and T. saccharolyticum AdhE, activity was measured at various stages during purification. […] The degree of protein purity was estimated by gel densitometry using the image analysis software ImageJ, where the density of each visible gel band from Eluent 3 was plotted as peaks. The area of each peak was then integrated to generate percentages, which is an indicator of AdhE purity E. coli cell extracts with native AdhE expressed (i.e. without the His-tag) were used directly without purification.
# (§3) All the ALDH activity measurements mentioned in this study refer to the reaction in the acetaldehyde-producing direction. All the ADH activity measurements mentioned in this study refer to the reaction in the ethanol-producing direction. For ADH (acetaldehyde reduction) reactions, the anaerobic reaction mixture contained 0.24 mM NADH or NADPH, 17.6 mM acetaldehyde, 1 mM DTT, 100 mM Tris-HCl, 5 μM FeSO4 and cell extract or purified protein solution (protein amount indicated separately for each assay). The final volume was 850 μL, the assay temperature was 55° C. and the assay was started by the addition of acetaldehyde. For ALDH (acetyl-CoA reduction) reactions, the acetaldehyde in the above anaerobic reaction mixture was substituted with 0.35 mM acetyl-CoA. Decrease in absorbance at 340 nm caused by NAD(P)H oxidation was monitored by an Agilent 8453 UV-Vis spectrophotometer with Peltier temperature control. Protein concentration was determined using the Bradford method with bovine serum albumin (Thermo Scientific) as the standard. Specific activities are expressed as units per mg of protein. One unit of activity=formation of 1 μmol of product per min Specific activities in Table 8 and Table 9 are reported for at least two biological replicates. […]
# [9] = substrate: CC=O; test: as above; format: biochemical, Clostridium thermocellum; conditions: pH 7.0; 55.0 °C
# Method: as §1, §2, §3
# [10] = substrate: CC(=O)SCCNC(=O)CCNC(=O)[C@H](O)C(C)(C)COP(=O)(O)OP(=O)(O)OC[C@H]1O[C@@H](n2cnc3c(N)ncnc32)[C@H](O)[C@@H]1OP(=O)(O)O; test: ALDH reaction (acetyl-CoA reduction) of purified AdhE, apparent kinetics; format: biochemical, Clostridium thermocellum; conditions: pH 7.0; 55.0 °C
# Method: as §1, §2, §3
# [11] = substrate: NC(=O)C1=CN([C@@H]2O[C@H](COP(=O)(O)OP(=O)(O)OC[C@H]3O[C@@H](n4cnc5c(N)ncnc54)[C@H](O)[C@@H]3O)[C@@H](O)[C@H]2O)C=CC1; test: as above; format: biochemical, Clostridium thermocellum; conditions: pH 7.0; 55.0 °C
# Method: as §1, §2, §3
# [12] = in the presence of 2.35 mM NAD^+
molecule,measurement,setting,value
NAD(P)^+,activity inhibited by NAD(P)^+,[1],at least 70%
CCO [ethanol],increase in ADH activity,[2]; purified adhe,2 fold
NC(=O)c1ccc[n+]([C@@H]2O[C@H](COP(=O)([O-])OP(=O)(O)OC[C@H]3O[C@@H](n4cnc5c(N)ncnc54)[C@H](O)[C@@H]3O)[C@@H](O)[C@H]2O)c1 [NAD^+],ADH activity retained,[2]; [12],98%
same,ALDH activity retained,[2]; [12],92%
same,inhibition by NAD^+,"[2]; purified AdhE, concentration not stated",less than 10%
(Acetivibrio thermocellus; D494G) (protein) MTKIANKYEVIDNVEKLEKALKRLREAQSVYATYTQEQVDKIFFEAAMAANKMRIPLAKMAVEETGMGVVEDKVIKNHYASEYIYNAYKNTKTCGVIEEDPAFGIKKIAEPLGVIAAVIPTTNPTSTAIFKTLIALKTRNAIIISPHPRAKNSTIEAAKIVLEAAVKAGAPEGIIGWIDVPSLELTNLVMREADVILATGGPGLVKAAYSSGKPAIGVGAGNTPAIIDDSADIVLAVNSIIHSKTFDNGMICASEQSVIVLDGVYKEVKKEFEKRGCYFLNEDETEKVRKTIIINGALNAKIVGQKAHTIANLAGFEVPETTKILIGEVTSVDISEEFAHEKLCPVLAMYRAKDFDDALDKAERLVADGGFGHTSSLYIDTVTQKEKLQKFSERMKTCRILVNTPSSQGGIGDLYNFKLAPSLTLGCGSWGGNSVSDNVGVKHLLNIKTVAERRENMLWFRTPEKIYIKRGCLPVALDELKNVMGKKKAFIVTGNFLYNNGYTKPITDKLDEMGIVHKTFFDVSPDPSLASAKAGAAEMLAFQPDTIIAVGGGSAMDAAKIMWVMYEHPEVDFMDMAMRFMDIRKRVYTFPKMGQKAYFIAIPTSAGTGSEVTPFAVITDEKTGIKYPLADYELLPDMAIVDADMMMNAPKGLTAASGIDALTHALEAYVSMLATDYTDSLALRAIKMIFEYLPRAYENGASDLVAREKMANAATIAGMAFANAFLGVCHSMARKLGAFYHLPHGVANALMINEVIRFNSSEAPTKMGTFPQYDHPRTLERYAEIADYIGLKGKNNEEKVENLIKAIDELKEKVGIRKTIKDYDIDEKEFLDRLDEMVEQAFDDQCTGTNPRYPLMNEIRQMYLNAYYGGAKK,Km,[3],0.4 ± 0.05 mM
same,kcat,[3],319 ± 21 s⁻¹
same,kcat/Km,[3],890000 M⁻¹ s⁻¹
same,Km,[4],2.1 ± 0.2 mM and 1.8 ± 0.2 mM
same,kcat,[4],318 s⁻¹ and 246 s⁻¹
same,kcat/Km,[4],150000 M⁻¹ s⁻¹ and 140000 M⁻¹ s⁻¹
same,Km,[5],0.08 ± 0.02 mM
same,kcat,[5],295 ± 18 s⁻¹
same,kcat/Km,[5],3.8e+06 M⁻¹ s⁻¹
same,Km,[6],4 ± 0.5 µM
same,kcat,[6],202 ± 4 s⁻¹
same,kcat/Km,[6],5.8e+07 M⁻¹ s⁻¹
same,Km,[7],0.02 ± 0.002 mM
same,kcat,[7],64 ± 2 s⁻¹
same,kcat/Km,[7],3.4e+06 M⁻¹ s⁻¹
(Acetivibrio thermocellus) (protein) MTKIANKYEVIDNVEKLEKALKRLREAQSVYATYTQEQVDKIFFEAAMAANKMRIPLAKMAVEETGMGVVEDKVIKNHYASEYIYNAYKNTKTCGVIEEDPAFGIKKIAEPLGVIAAVIPTTNPTSTAIFKTLIALKTRNAIIISPHPRAKNSTIEAAKIVLEAAVKAGAPEGIIGWIDVPSLELTNLVMREADVILATGGPGLVKAAYSSGKPAIGVGAGNTPAIIDDSADIVLAVNSIIHSKTFDNGMICASEQSVIVLDGVYKEVKKEFEKRGCYFLNEDETEKVRKTIIINGALNAKIVGQKAHTIANLAGFEVPETTKILIGEVTSVDISEEFAHEKLCPVLAMYRAKDFDDALDKAERLVADGGFGHTSSLYIDTVTQKEKLQKFSERMKTCRILVNTPSSQGGIGDLYNFKLAPSLTLGCGSWGGNSVSDNVGVKHLLNIKTVAERRENMLWFRTPEKIYIKRGCLPVALDELKNVMGKKKAFIVTDNFLYNNGYTKPITDKLDEMGIVHKTFFDVSPDPSLASAKAGAAEMLAFQPDTIIAVGGGSAMDAAKIMWVMYEHPEVDFMDMAMRFMDIRKRVYTFPKMGQKAYFIAIPTSAGTGSEVTPFAVITDEKTGIKYPLADYELLPDMAIVDADMMMNAPKGLTAASGIDALTHALEAYVSMLATDYTDSLALRAIKMIFEYLPRAYENGASDLVAREKMANAATIAGMAFANAFLGVCHSMARKLGAFYHLPHGVANALMINEVIRFNSSEAPTKMGTFPQYDHPRTLERYAEIADYIGLKGKNNEEKVENLIKAIDELKEKVGIRKTIKDYDIDEKEFLDRLDEMVEQAFDDQCTGTNPRYPLMNEIRQMYLNAYYGGAKK,Km,[8],0.1 ± 0.02 mM
same,kcat,[8],302 ± 13 s⁻¹
same,kcat/Km,[8],2.3e+06 M⁻¹ s⁻¹
same,Km,[9],1.3 ± 0.2 mM
same,kcat,[9],238 ± 8 s⁻¹
same,kcat/Km,[9],180000 M⁻¹ s⁻¹
same,Km,[10],8 ± 2 µM
same,kcat,[10],297 ± 11 s⁻¹
same,kcat/Km,[10],3.5e+07 M⁻¹ s⁻¹
same,Km,[11],0.06 ± 0.004 mM
same,kcat,[11],152 ± 4 s⁻¹
same,kcat/Km,[11],2.8e+06 M⁻¹ s⁻¹
